One experiment addresses His tagged VEGF protein (UniProt P15692). Briefly: ELISA, His tagged VEGF protein. On the technique in general: In an ELISA, binding on a coated surface is turned into a signal by an enzyme label.
The next experiment deals with His tagged CD20 protein (UniProt P11836). Briefly: ELISA, His tagged CD20 protein.

Positions count from the first letter of the chain named.

Sequence of His tagged VEGF protein (P15692 other isoform, or with tags, fused parts or gaps limits assumed): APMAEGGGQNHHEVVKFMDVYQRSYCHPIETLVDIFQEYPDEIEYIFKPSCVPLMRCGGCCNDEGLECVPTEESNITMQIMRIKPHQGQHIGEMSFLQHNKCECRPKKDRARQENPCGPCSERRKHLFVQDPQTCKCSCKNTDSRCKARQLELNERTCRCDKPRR

B1: Beva-se002 conjugated to S47 (antibody, human IgG1, kappa, V domains shown)
VH: EVQLVESGGGLVQPGGSLRLSCAASGYTFTNYGMNWVRQAPGKGLEWVGWINTYTGEPTYAADFKRRFTFSLDTSKSTAYLQMNSLRAEDTAVYYCAKYPHYYGSSHWYFDVWGQGTLVTVSS
VL: DIQMTQSPSSLSASVGDRVTITCSACQDISNYLNWYQQKPGKAPKVLIYFTSSLHSGVPSRFSGSGSGTDFTLTISSLQPEDFATYYCQQYSTVPWTFGQGTKVEIKR
modifications: S47 on Cys 26
B1 had a Blocking efficiency of S47 with His tagged VEGF protein of 16 fold.

B2: Beva-se003 conjugated to S47 (antibody, human IgG1, kappa, V domains shown)
VH: B1 VH
VL: B1 VL with C26S, Y49C
modifications: S47 on Cys 49
Consider B2, for which, in the experiment with His tagged VEGF protein, the Blocking efficiency of S47 turned out to be 26 fold.

B3: Beva -se004 conjugated to S47 (antibody, human IgG1, kappa, V domains shown)
VH: B1 VH
VL: B1 VL with C26S, T51C
modifications: S47 on Cys 51
Regarding B3, the Blocking efficiency of S47 with His tagged VEGF protein was 13 fold.

B4: Ritu-se001 conjugated to S47 (antibody, human IgG1, kappa, V domains shown)
VH: QVQLQQPGAELVKPGASVKMSCKASGYTFTSCNMHWVKQTPGRGLEWIGAIYPGNGDTSYNQKFKGKATLTADKSSSTAYMQLSSLTSEDSAVYYCARSTYYGGDWYFNVWGAGTTVTVSA
VL: QIVLSQSPAILSASPGEKVTMTCRASSSVSYIHWFQQKPGSSPKPWIYATSNLASGVPVRFSGSGSGTSYSLTISRVEAEDAATYYCQQWTSNPPTFGGGTKLEIKR
modifications: S47 on Cys 32
On to B4, for which, in the experiment with His tagged CD20 protein, the Blocking efficiency of S47 came out at 16 fold.

B5: Ritu-se002 conjugated to S47 (antibody, human IgG1, kappa, V domains shown)
VH: B4 VH with C32Y, K63C
VL: B4 VL
modifications: S47 on Cys 63
Turning to B5, in the experiment with His tagged CD20 protein, the Blocking efficiency of S47 is 8 fold.

The record behind these values is US20230158141A1.
